The numbers were not newly measured in patent publication US6316409A, “Modified ligands of calcium-dependent binding proteins” (Medical Research Council, priority 1996, dated 2001), which cites them from elsewhere.

The target in this series is T1, barnase (Bacillus amyloliquefaciens, UniProt P00648).
T1 sequence (P00648 48-157): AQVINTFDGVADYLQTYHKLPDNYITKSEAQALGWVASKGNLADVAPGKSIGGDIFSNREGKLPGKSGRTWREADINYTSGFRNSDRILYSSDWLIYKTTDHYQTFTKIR
Particulars: cited from earlier work.

B1: barstar: physiological inhibitor of barnase (protein, UniProt P11540 2-90, looked up)
Barstar: KKAVINGEQIRSISDLHQTLKKELALPEYYGENLDALWDCLTGWVEYPLVLEWRQFEQSKQLTENGAESVLQVFREAKAEGCDITIILS
As to B1, the association rate constant was 3.8e+09 M⁻¹ s⁻¹.
